# Measured values as given in IntAct's records for PubMed 11591686.
# B1: RNA polymerase sigma factor RpoD (Pseudomonas aeruginosa (strain ATCC 15692 / PAO1 / 1C / PRS 101 / LMG 12228)), P26480 (parent)
# chain: MSGKAQQQSRLKELIARGREQGYLTYAEVNDHLPEDISDPEQVEDIIRMINDMGINVFETAPDADALLLAEADTDEAAAEEAAAALAAVESDIGRTTDPVRMYMREMGTVELLTREGEIEIAKRIEEGIREVMSAIAQFPGTVDSILADYNRIVAEGGRLSDVLSGYIDPDDGSLPAEEVEPVNLKDDSADSKEKDDEEEESDDSSDSDDEGDGGPDPEEARLRFTAVSEQLDKAKKALKKHGRGSKQATAELTGLAELFMPIKLVPKQFDALVARVRSALEGVRAQERAIMQLCVRDARMPRADFLRLFPNHETDEKWVDSVLKSKPKYAEAIERLRDDILRNQQKLAALESEVELTVAEIKEINRAMSIGEAKARRAKKEMVEANLRLVISIAKKYTNRGLQFLDLIQEGNIGLMKAVDKFEYRRGYKFSTYATWWIRQAITRSIADQARTIRIPVHMIETINKLNRISRQMLQEMGREPTPEELGERMDMPEDKIRKVLKIAKEPISMETPIGDDEDSHLGDFIEDSTMQSPIEMATSESLKESTREVLAGLTAREAKVLRMRFGIDMNTDHTLEEVGKQFDVTRERIRQIEAKALRKLRHPSRSEHLRSFLDE
# partner: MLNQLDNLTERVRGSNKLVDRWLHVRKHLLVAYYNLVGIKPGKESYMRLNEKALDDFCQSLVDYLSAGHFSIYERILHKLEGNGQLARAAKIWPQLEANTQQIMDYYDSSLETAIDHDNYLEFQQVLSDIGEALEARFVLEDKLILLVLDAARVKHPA
# B2: RNA polymerase sigma factor RpoD (Pseudomonas aeruginosa (strain ATCC 15692 / PAO1 / 1C / PRS 101 / LMG 12228)), P26480 (parent)
# chain: B1 chain
# partner: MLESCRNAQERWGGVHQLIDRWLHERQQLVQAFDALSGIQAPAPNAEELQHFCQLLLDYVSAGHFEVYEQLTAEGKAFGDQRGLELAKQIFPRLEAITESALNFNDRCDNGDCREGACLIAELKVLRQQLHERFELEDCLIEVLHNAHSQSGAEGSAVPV
# B3: RNA polymerase sigma factor RpoD (Pseudomonas aeruginosa (strain ATCC 15692 / PAO1 / 1C / PRS 101 / LMG 12228)), P26480 (parent)
# chain: B1 chain
# partner: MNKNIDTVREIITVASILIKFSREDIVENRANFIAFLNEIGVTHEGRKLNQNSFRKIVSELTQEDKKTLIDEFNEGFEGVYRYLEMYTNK
# Variants of: B1
# Conditions: with rsd_ecoli rsd
row,Variant,effect of a mutation on the interaction
1,R600H,decreasing interaction

# Variants of: B2
# Conditions: with algq_pseae algQ
row,Variant,effect of a mutation on the interaction
1,R600H,decreasing interaction

# Variants of: B3
# Conditions: with asia_bpt4 asiA
row,Variant,effect of a mutation on the interaction
1,R600H,decreasing interaction
